Reference: patent US20240018502A1
Changes are numbered by the printed parent chain. In names and notes the source's numbering stands.

B1: MTSP-1 Q38H/I41S/D60bT/F60eS/Y60gW/D96K/ins97aV/T98P/F99L/C122S/G151H/Q175L/Q192D (enzyme)
chain: VVGGTDADEGEWPWQVSLHALGHGHSCGASLISPNWLVSAAHCYIDTRGSRWSDPTQWTAFLGLHDQSQRSAPGVQERRLKRIISHPFFNKFVPLDYDIALLELEKPAEYSSMVRPISLPDASHVFPAGKAIWVTGWGHTQYGGTHALILQKGEIRVINQTTCENLLPQLITPRMMCVGFLSGGVDSCDGDSGGPLSSVEADGRIFQAGVVSWGDGCAQRNKPGVYTRLPLFRDWIKENTGV
B2: MTSP-1 Q38H/I41S/D60bT/F60eS/Y60gW/D96K/F97G/ins97aV/T98P/F99L/C122S/G151H/Q175L (enzyme)
chain: B1 chain with F92G, D189Q
B3: MTSP-1 protease domain F97R/ins97aI/T98P/C122S/Q175M/Q192V/D217I (enzyme)
chain: VVGGTDADEGEWPWQVSLHALGQGHICGASLISPNWLVSAAHCYIDDRGFRYSDPTQWTAFLGLHDQSQRSAPGVQERRLKRIISHPFFNDRIPFDYDIALLELEKPAEYSSMVRPISLPDASHVFPAGKAIWVTGWGHTQYGGTGALILQKGEIRVINQTTCENLLPQMITPRMMCVGFLSGGVDSCVGDSGGPLSSVEADGRIFQAGVVSWGIGCAQRNKPGVYTRLPLFRDWIKENTGV
B4: MTSP-1 protease domain I41G/F99L/C122S/Q175I/Q192T/D217T (enzyme)
chain: VVGGTDADEGEWPWQVSLHALGQGHGCGASLISPNWLVSAAHCYIDDRGFRYSDPTQWTAFLGLHDQSQRSAPGVQERRLKRIISHPFFNDFTLDYDIALLELEKPAEYSSMVRPISLPDASHVFPAGKAIWVTGWGHTQYGGTGALILQKGEIRVINQTTCENLLPQIITPRMMCVGFLSGGVDSCTGDSGGPLSSVEADGRIFQAGVVSWGTGCAQRNKPGVYTRLPLFRDWIKENTGV
B5: MTSP-1 protease domain I41E/F97S/F99L/C122S/Q175L/Q192V/D217A (enzyme)
chain: B4 chain with G26E, F92S, I169L, T188V, T214A
B6: MTSP-1 protease domain I41G/F97A/F99L/C122S/G151N/Q175M/Q192S (enzyme)
chain: B4 chain with F92A, G145N, I169M, T188S, T214D
B7: MTSP-1 protease domain F97L/F99L/C122S/Q175K/Q192V/D217M (enzyme)
chain: B4 chain with G26I, F92L, I169K, T188V, T214M
B8: MTSP-1 protease domain Q38R/I41G/Y60gG/F99M/C122S/G151N/Q192R (enzyme)
chain: B4 chain with Q23R, Y52G, L94M, G145N, I169Q, T188R, T214D
B9: MTSP-1 protease domain Q38K/I41G/Y60gG/F99L/C122S/G151N/Q192H (enzyme)
chain: B4 chain with Q23K, Y52G, G145N, I169Q, T188H, T214D
B10: MTSP-1 protease domain Q38R/I41R/Y60gF/F99L/C122S/G151N/Q192G (enzyme)
chain: B4 chain with Q23R, G26R, Y52F, G145N, I169Q, T188G, T214D
B11: MTSP-1 protease domain I41E/F97V/F99L/C122S/Q175L/Q192S/D217H (enzyme)
chain: B4 chain with G26E, F92V, I169L, T188S, T214H
B12: MTSP-1 protease domain I41D/F99L/C122S/Q192T (enzyme)
chain: B4 chain with G26D, I169Q, T214D
B13: MTSP-1 protease domain I41E/F97V/F99L/C122S/G151N/Q175L/D217H (enzyme)
chain: B4 chain with G26E, F92V, G145N, I169L, T188Q, T214H
B14: MTSP-1 protease domain Q38K/I41D/Y60gG/F99L/C122S/G151N (enzyme)
chain: B4 chain with Q23K, G26D, Y52G, G145N, I169Q, T188Q, T214D
B15: MTSP-1 protease domain I41S/F97Q/F99L/C122S/Q175W/Q192V/D217R (enzyme)
chain: B4 chain with G26S, F92Q, I169W, T188V, T214R
B16: MTSP-1 protease domain I41D/F97T/F99L/C122S/G151N/Q175S/Q192T (enzyme)
chain: B4 chain with G26D, F92T, G145N, I169S, T214D
B17: MTSP-1 protease domain I41D/F97T/F99L/C122S/G151N/Q192T (enzyme)
chain: B4 chain with G26D, F92T, G145N, I169Q, T214D
B18: MTSP-1 protease domain F97R/F99L/C122S/G151Q/Q175R/Q192V/D217L (enzyme)
chain: B4 chain with G26I, F92R, G145Q, I169R, T188V, T214L
B19: MTSP-1 protease domain F97E/F99L/C122S/Q175H/Q192V/D217P (enzyme)
chain: B4 chain with G26I, F92E, I169H, T188V, T214P
B20: MTSP-1 protease domain I41D/F97R/F99L/C122S/G151Q/Q192V/D217L (enzyme)
chain: B4 chain with G26D, F92R, G145Q, I169Q, T188V, T214L
B21: MTSP-1 protease domain I41G/F97L/F99L/C122S/G151N/Q192V/D217L (enzyme)
chain: B4 chain with F92L, G145N, I169Q, T188V, T214L
B22: MTSP-1 protease domain I41E/F99L/C122S/G151N/Q175L/Q192S/D217H (enzyme)
chain: B4 chain with G26E, G145N, I169L, T188S, T214H
B23: MTSP-1 protease domain I41D/F97R/F99L/C122S/G151Q/Q175R/D217L (enzyme)
chain: B4 chain with G26D, F92R, G145Q, I169R, T188Q, T214L
B24: MTSP-1 I41D/C122S/G151N/Q192T (enzyme)
chain: B4 chain with G26D, L94F, G145N, I169Q, T214D
B25: MTSP-1 protease domain Q38S/I41S/Y60gW/F99L/C122S/G151D/Q192T (enzyme)
chain: B4 chain with Q23S, G26S, Y52W, G145D, I169Q, T214D
B26: MTSP-1 I41E/F99L/C122S/G151N/Q192T (enzyme)
chain: B4 chain with G26E, G145N, I169Q, T214D
B27: MTSP-1 protease domain I41D/F99L/C122S/G151N/Q192T/D217A (enzyme)
chain: B4 chain with G26D, G145N, I169Q, T214A
B28: MTSP-1 protease domain I41D/F99L/C122S/G151N/Q192T (enzyme)
chain: B4 chain with G26D, G145N, I169Q, T214D
B29: MTSP-1 I41S/F99L/C122S/G151N/Q192V (enzyme)
chain: B4 chain with G26S, G145N, I169Q, T188V, T214D
B30: MTSP-1 protease domain I41D/F99L/C122S/G151N/Q175S/Q192T/D217A (enzyme)
chain: B4 chain with G26D, G145N, I169S, T214A
B31: MTSP-1 protease domain F97V/F99L/C122S/G151N/Q175L/Q192S/D217H (enzyme)
chain: B4 chain with G26I, F92V, G145N, I169L, T188S, T214H
B32: MTSP-1 protease domain I41D/F97T/F99L/C122S/G151N/Q192T/D217A (enzyme)
chain: B4 chain with G26D, F92T, G145N, I169Q, T214A
B33: MTSP-1 protease domain F97E/F99L/C122S/G151A/Q192V (enzyme)
chain: B4 chain with G26I, F92E, G145A, I169Q, T188V, T214D
B34: MTSP-1 protease domain I41D/F97T/F99L/C122S/Q175S/Q192T/D217A (enzyme)
chain: B4 chain with G26D, F92T, I169S, T214A
B35: MTSP-1 protease domain I41D/F97R/F99L/C122S/Q175R/Q192V/D217L (enzyme)
chain: B4 chain with G26D, F92R, I169R, T188V, T214L
B36: MTSP-1 protease domain I41E/F97V/F99L/C122S/G151N/Q192S/D217H (enzyme)
chain: B4 chain with G26E, F92V, G145N, I169Q, T188S, T214H
B37: MTSP-1 protease domain I41E/F97R/F99L/C122S/G151Q/Q175G/Q192T (enzyme)
chain: B4 chain with G26E, F92R, G145Q, I169G, T214D
B38: MTSP-1 protease domain F97T/F99L/C122S/G151N/Q175S/Q192T/D217A (enzyme)
chain: B4 chain with G26I, F92T, G145N, I169S, T214A
B39: MTSP-1 protease domain I41E/F97V/F99L/C122S/G151N/Q175L/Q192S (enzyme)
chain: B4 chain with G26E, F92V, G145N, I169L, T188S, T214D
B40: MTSP-1 protease domain I41D/F99L/C122S/Q175S/Q192T (enzyme)
chain: B4 chain with G26D, I169S, T214D
B41: MTSP-1 protease domain I41G/F99L/C122S/G151N/Q175I/Q192T (enzyme)
chain: B4 chain with G145N, T214D
B42: MTSP-1 protease domain I41G/F99L/C122S/G151N/Q192T/D217T (enzyme)
chain: B4 chain with G145N, I169Q
B43: MTSP-1 protease domain Q38L/I41R/Y60gF/F99L/C122S/G151N/Q192A (enzyme)
chain: B4 chain with Q23L, G26R, Y52F, G145N, I169Q, T188A, T214D
B44: MTSP-1 protease domain I41D/F99L/C122S/G151N/Q175S/Q192T (enzyme)
chain: B4 chain with G26D, G145N, I169S, T214D
B45: MTSP-1 protease domain I41D/F97T/F99L/C122S/G151N/Q175S/D217A (enzyme)
chain: B4 chain with G26D, F92T, G145N, I169S, T188Q, T214A
B46: MTSP-1 protease domain I41D/F99L/C122S/G151Q/Q175R/Q192V/D217L (enzyme)
chain: B4 chain with G26D, G145Q, I169R, T188V, T214L
B47: MTSP-1 protease domain I41D/F97R/F99L/C122S/Q175L/Q192T/D217I (enzyme)
chain: B4 chain with G26D, F92R, I169L, T214I
B48: MTSP-1 protease domain I41G/F97V/F99L/C122S/G151N/Q192T/D217V (enzyme)
chain: B4 chain with F92V, G145N, I169Q, T214V
B49: MTSP-1 protease domain I41D/F97R/F99L/C122S/G151Q/Q175R/Q192V (enzyme)
chain: B4 chain with G26D, F92R, G145Q, I169R, T188V, T214D

Molecular target: plasma purified human complement protein C3 (human) (UniProt P01024)
Assay: cell-based or functional assay

Chain of plasma purified human complement protein C3 (human) (P01024 23-667, chain 1 of 2): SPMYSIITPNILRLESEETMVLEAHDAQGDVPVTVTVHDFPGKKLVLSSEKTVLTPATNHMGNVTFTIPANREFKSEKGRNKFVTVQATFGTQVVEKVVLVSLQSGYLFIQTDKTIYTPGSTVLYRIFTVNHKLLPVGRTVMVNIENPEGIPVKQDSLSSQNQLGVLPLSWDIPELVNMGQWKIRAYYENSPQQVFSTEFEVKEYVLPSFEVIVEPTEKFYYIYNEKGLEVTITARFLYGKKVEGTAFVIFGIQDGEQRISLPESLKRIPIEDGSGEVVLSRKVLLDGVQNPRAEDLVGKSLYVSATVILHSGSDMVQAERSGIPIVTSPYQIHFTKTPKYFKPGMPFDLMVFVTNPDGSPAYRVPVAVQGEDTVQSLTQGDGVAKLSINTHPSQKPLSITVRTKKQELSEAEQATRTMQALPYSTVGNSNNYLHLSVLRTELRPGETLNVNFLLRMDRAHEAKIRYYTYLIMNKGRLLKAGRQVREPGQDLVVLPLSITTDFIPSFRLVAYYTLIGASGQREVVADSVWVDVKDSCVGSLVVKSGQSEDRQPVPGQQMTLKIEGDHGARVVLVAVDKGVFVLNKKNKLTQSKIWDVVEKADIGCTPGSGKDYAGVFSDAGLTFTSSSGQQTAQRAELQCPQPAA
Chain of plasma purified human complement protein C3 (human) (P01024 672-1663, chain 2 of 2): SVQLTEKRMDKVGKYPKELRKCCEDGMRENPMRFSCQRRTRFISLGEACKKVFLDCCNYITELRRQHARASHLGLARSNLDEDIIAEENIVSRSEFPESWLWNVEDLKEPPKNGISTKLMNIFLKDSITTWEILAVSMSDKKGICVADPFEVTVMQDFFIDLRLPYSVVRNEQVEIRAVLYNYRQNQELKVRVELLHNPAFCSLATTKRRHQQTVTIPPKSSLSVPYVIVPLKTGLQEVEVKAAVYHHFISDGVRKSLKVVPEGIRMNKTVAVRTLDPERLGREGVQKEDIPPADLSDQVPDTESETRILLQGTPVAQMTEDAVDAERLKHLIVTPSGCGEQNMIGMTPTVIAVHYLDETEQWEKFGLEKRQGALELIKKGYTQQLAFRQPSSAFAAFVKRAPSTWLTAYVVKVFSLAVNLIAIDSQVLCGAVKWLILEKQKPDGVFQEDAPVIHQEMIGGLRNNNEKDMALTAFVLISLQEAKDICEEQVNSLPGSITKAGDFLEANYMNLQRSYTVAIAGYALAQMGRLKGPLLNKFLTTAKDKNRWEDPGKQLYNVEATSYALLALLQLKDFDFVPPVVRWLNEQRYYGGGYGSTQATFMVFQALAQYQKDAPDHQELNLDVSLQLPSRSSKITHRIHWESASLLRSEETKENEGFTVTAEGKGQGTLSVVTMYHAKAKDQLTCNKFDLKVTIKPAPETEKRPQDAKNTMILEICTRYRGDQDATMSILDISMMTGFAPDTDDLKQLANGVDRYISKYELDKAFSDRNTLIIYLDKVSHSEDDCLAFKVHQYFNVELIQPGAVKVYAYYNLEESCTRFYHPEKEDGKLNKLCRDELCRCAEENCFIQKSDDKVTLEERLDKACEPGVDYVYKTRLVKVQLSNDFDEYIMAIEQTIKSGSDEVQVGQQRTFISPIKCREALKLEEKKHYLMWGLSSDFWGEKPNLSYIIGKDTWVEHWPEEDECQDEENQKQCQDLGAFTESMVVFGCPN

Row | Binder | EC50 of hC3 cleavage | EC50 hC3 cleavage
1 | B1 | 12 nM | –
2 | B2 | 1.45 nM | –
3 | B3 | – | 23.6 nM
4 | B4 | – | 81.8 nM
5 | B5 | – | 89.9 nM
6 | B6 | – | 73.1 nM
7 | B7 | – | 463 nM
8 | B8 | – | 147 nM
9 | B9 | – | 17.9 nM
10 | B10 | – | 197 nM
11 | B11 | – | 44.3 nM
12 | B12 | – | 59.4 nM
13 | B13 | – | 16.5 nM
14 | B14 | – | 52.7 nM
15 | B15 | – | 50.6 nM
16 | B16 | – | 56.7 nM
17 | B17 | – | 84.3 nM
18 | B18 | – | 137 nM
19 | B19 | – | 7770 nM
20 | B20 | – | 42.3 nM
21 | B21 | – | 112 nM
22 | B22 | – | 27.1 nM
23 | B23 | – | 19.4 nM
24 | B24 | 85.2 nM | –
25 | B25 | – | 15 nM

Row | Binder | EC50 of hC3 cleavage | EC50 hC3 cleavage
26 | B26 | 124 nM | –
27 | B27 | – | 45.1 nM
28 | B28 | – | 47 nM
29 | B29 | 34.4 nM | –
30 | B30 | – | 30.5 nM
31 | B31 | – | 91.6 nM
32 | B32 | – | 70.4 nM
33 | B33 | – | 1040 nM
34 | B34 | – | 52.1 nM
35 | B35 | – | 50.6 nM
36 | B36 | – | 42.2 nM
37 | B37 | – | 41.1 nM
38 | B38 | – | 172 nM
39 | B39 | – | 51.2 nM
40 | B40 | – | 27.4 nM
41 | B41 | – | 51.6 nM
42 | B42 | – | 44.7 nM
43 | B43 | – | 151 nM
44 | B44 | – | 28.6 nM
45 | B45 | – | 25.5 nM
46 | B46 | – | 31.6 nM
47 | B47 | – | 5.72 nM
48 | B48 | – | 30.5 nM
49 | B49 | – | 79.4 nM
